# According to paper PMC6697693:
# Target: Δ258-UNC-23, stable fragment of UNC-23, fluorescently labelled (C. elegans)
# Sequence (main, as listed by the source mutant): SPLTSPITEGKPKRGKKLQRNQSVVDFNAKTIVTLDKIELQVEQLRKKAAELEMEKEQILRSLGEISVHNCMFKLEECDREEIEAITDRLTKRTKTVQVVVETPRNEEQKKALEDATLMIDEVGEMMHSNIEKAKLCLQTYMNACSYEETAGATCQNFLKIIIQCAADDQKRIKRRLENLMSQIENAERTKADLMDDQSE
# Chain of wild type Hsc70 (nematode Hsc70, HSP-1) (P09446 whole entry): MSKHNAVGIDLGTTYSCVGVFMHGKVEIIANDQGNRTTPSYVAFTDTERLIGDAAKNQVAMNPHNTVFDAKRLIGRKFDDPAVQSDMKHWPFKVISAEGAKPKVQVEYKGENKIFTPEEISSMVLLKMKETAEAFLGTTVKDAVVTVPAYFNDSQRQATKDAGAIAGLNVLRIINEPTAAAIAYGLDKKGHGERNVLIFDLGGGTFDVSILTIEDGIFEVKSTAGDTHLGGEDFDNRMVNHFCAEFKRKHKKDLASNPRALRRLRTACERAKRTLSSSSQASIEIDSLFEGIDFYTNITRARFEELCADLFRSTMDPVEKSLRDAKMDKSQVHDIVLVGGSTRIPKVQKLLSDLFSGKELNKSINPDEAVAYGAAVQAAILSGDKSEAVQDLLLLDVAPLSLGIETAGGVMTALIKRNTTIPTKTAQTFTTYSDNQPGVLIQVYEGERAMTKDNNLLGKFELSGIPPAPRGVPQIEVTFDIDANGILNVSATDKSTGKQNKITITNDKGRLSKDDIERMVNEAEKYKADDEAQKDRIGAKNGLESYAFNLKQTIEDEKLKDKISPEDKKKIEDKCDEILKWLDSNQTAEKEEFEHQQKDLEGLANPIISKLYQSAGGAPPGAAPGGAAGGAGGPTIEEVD
substance,measurement,value
Hsc70 A379V (from UniProt P09446 1-640) (natural protein),"ATPase stimulation (stimulated minus unstimulated turnover), 3 µM Hsc70 A379V with 3 µM UNC-23",0.02 min⁻¹
Hsc70 D384N (from UniProt P09446 1-640) (natural protein),"ATPase stimulation (stimulated minus unstimulated turnover), 3 µM Hsc70 D384N with 3 µM UNC-23",0.24 min⁻¹
Hsc70 D233N (from UniProt P09446 1-640) (natural protein),"ATPase stimulation (stimulated minus unstimulated turnover), 3 µM Hsc70 D233N with 3 µM UNC-23",0.12 min⁻¹
"wild type Hsc70 (nematode Hsc70, HSP-1) (from UniProt P09446 1-640) (natural protein)","ATPase stimulation (stimulated minus unstimulated turnover), 3 µM Hsc70 with 3 µM UNC-23",0.18 min⁻¹
